Data taken from PMC2848764, “The Arabidopsis EAR-motif-containing protein RAP2.1 functions as an active transcriptional repressor to keep stress responses under tight control”.

Target: GST-RAP2.1 N-terminal 120 aa (AP2 DNA-binding domain) (UniProt Q8LC30 1-120)
Experiment: EMSA; 100 ng probe, 5 or 10 ug protein; EMSA as in cited ref 42; buffer, salt, pH and temperature not given; 100 ng probe with 5 or 10 ug protein
Conditions: protein: recombinant; tags: GST (pGEX6P-1, N-terminal)

Chain of GST-RAP2.1 N-terminal 120 aa (AP2 DNA-binding domain) (Q8LC30 1-120): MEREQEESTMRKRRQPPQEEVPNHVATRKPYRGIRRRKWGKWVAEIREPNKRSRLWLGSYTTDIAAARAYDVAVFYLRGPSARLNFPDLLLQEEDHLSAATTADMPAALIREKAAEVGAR

| Binder | binding result |
| --- | --- |
| mDRE (dsDNA) DNA 1: AATTCAAAAGATATACTACTTTTATGAGTT DNA 2: AACTCATAAAAGTAGTATATCTTTTGAATT | no binding |
| wDRE (dsDNA) DNA 1: AATTCAAAAGATATACTACCGACATGAGTT DNA 2: AACTCATGTCGGTAGTATATCTTTTGAATT | binds |
